Results: the supplement of paper PMC9170038

Tested on: MS2 coat protein
Test: apparent KD of MS2 coat protein; designed switch direction (-1 OFF switch, 1 ON switch): 1; higher = weaker reporter binding
Procedure, shortened: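 Each step of the titration lasted 0.8–1.5 h at the lowest concentration and 10–20 min at the highest. The protein, SNAP-549-labelled MS2 coat protein, went from 0.7 or 1.5 nM doubling to 3 µM over RNA switches transcribed on Illumina chips by stalled E. coli RNA polymerase. Normalised cluster fluorescence was curve-fitted, and the per-design median over clusters is given as apparent KD.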

[1] = Eterna round: R95, input ligand: microRNA oligo, concentration not stated
[2] = Eterna round: R95, input ligand: FMN 200 uM
[3] = Eterna round: R95, input ligand: none
[4] = input ligand: microRNA oligo, concentration not stated

Row | Sequence | apparent KD of MS2 coat protein [1] | apparent KD of MS2 coat protein [2] | apparent KD of MS2 coat protein [3] | apparent KD of MS2 coat protein (input ligand: FMN 200 uM) | apparent KD of MS2 coat protein [4] | apparent KD of MS2 coat protein (input ligand: none)
1 | GUACAACAUGAGGAUCACCCAUGUAUAUAUAUACGAGGAUAUGCAUGUACGAAAGUAUAUGCAGAAGGCGUUGUAC [Pin2Pin] (puzzle: Same State 1) | 75.4 nM |  |  |  |  | 
2 | GUAGAUAUAACGGAGGAUAUUCAAUGAGAGACAUGAGGAUCACCCAUGUGAGAGUGAGAUGAUAGGAAGAAGGCUGAGAGAGAUG [Altered State 2-7 - Jieux - Same State 2] (puzzle: Same State 2) | 70.3 nM | 94.2 nM | 64.7 nM |  |  | 
3 | GUAGCAUACCGAGGAUAUUCAUAUAAUAACAUGAGGAUCACCCAUGUAUAUAGGCGAAAGCCUUGGGAGAAGGCGGAAUGCUAC [Xeonanis - 20 Mod64] (Eterna round: R96, puzzle: Same State NG 2) |  |  |  | 17.1 nM | 18.9 nM | 31 nM
4 | GUAGGACAUGAGGAUCACCCAUGUGGGAGGGAACGAGGAUAUGUGAUUAGCGAGGAGAGGACAGAAGGCGUGGUAG [JR_SS1_Sub024] (puzzle: Same State 1) | 35.4 nM | 55.2 nM | 50.8 nM |  |  | 
5 | GUAUAACAUGAGGAUCACCCAUGUCAUCUAAGUCGAGGAUAUGGGAAUUAAUUAAUUAAACCAGAAGGCGAAAAUU [Mat - Same State 1 - D92] (puzzle: Same State 1) | 364 nM | 79 nM | 492 nM |  |  | 
6 | GUGAAACAUGAGGAUCACCCAUGUAUGACGGGCACAGGAUAUCGUGGUUCGCUCAUACUACGAGAAGGGUGAAAAG [Inordien] (puzzle: Same State 1) | 18 nM | 20.5 nM | 18.9 nM |  |  | 
7 | GUGCUCGUGUAAGGAUAUGCAGCCGUUUCGGCUGCAGAAGGUACUAUAAUACAUGAGGAUCACCCAUGUCUCUAUAAUUUGGUG [salish99_SSNG1_r04_904] (Eterna round: R96, puzzle: Same State NG 1) |  |  |  |  | 107 nM | 
8 | GUGCUCGUGUGAGGAUAUGCGGCCGGGUCGGCUGCAGAAGGUACUAUUAUACAUGAGGAUCACCCAUGUCGCUUUUCUCCGGUG [salish99_SSNG1_r04_919] (Eterna round: R96, puzzle: Same State NG 1) |  |  |  | 62.5 nM | 41.2 nM | 49 nM
9 | GUGGAGGGUUGAGGAUAUUGAAUACAUAUGUUUAACAUGAGGAUCACCCAUGUGGGUUGCGGUAUCGAGAAGGUAAAUUACUGG [salish99_SSNG2_r04_036] (Eterna round: R96, puzzle: Same State NG 2) |  |  |  | 80.9 nM | 79 nM | 86.3 nM
10 | GUGGCUGCCACAGGAUAUACCGUGUAAUUCACGGUAGAAGGGUGAAGCACUCAAAAGAGUGCUAACAUGAGGAUCACCCAUGUG [Quzaon] (Eterna round: R96, puzzle: Same State NG 1) |  |  |  | 1040 nM | 170 nM | 290 nM
11 | GUGGUCAGACAUGAGGAUCACCCAUGUGGAAUAAAUAACGUCAAGGAUAUUCAAUAUAGGAUAUAGAAGAAGGUGAGAUUGGUG (Eterna round: R96, puzzle: Same State NG 3) |  |  |  |  | 142 nM | 
12 | GUGGUCAGACAUGAGGAUCACCCAUGUGGAAUAAAUAAGGAAAAGGAUAUCUAAUAUAGGAUAUAAGAGAAGGUUUGGUUGGUG (Eterna round: R96, puzzle: Same State NG 3) |  |  |  | 74.1 nM | 52.1 nM | 64.7 nM
13 | GUGGUCAGACAUGAGGAUCACCCAUGUGGAAUAAAUAAGGAAUAGGAUAUGGAAUAUAGGAUAUACCAGAAGGAUUGGUUGGUG (Eterna round: R96, puzzle: Same State NG 3) |  |  |  | 96.9 nM | 80.4 nM | 97 nM
14 | GUGGUCAGACAUGAGGAUCACCCAUGUGGAAUAAAUAAGGCAUAGGAUAUGAAAUAUAGGAUAUAUCAGAAGGAUGGGUUGGUG (Eterna round: R96, puzzle: Same State NG 3) |  |  |  |  | 131 nM | 
15 | GUGGUCAGACAUGAGGAUCACCCAUGUGGAAUAAAUAAGGGACAGGAUAUCUAAUAUAGGAUAUAAGAGAAGGGUUGGUUGGUG (Eterna round: R96, puzzle: Same State NG 3) |  |  |  | 69.3 nM | 44.8 nM | 73.5 nM
16 | GUGGUCAGACAUGAGGAUCACCCAUGUGGAAUAAAUAAGGGUCAGGAUAUCUAAUAUAGGAUAUAAGAGAAGGGAUGGUUGGUG (Eterna round: R96, puzzle: Same State NG 3) |  |  |  | 89.2 nM | 89.4 nM | 82.7 nM

Row | Sequence | apparent KD of MS2 coat protein [1] | apparent KD of MS2 coat protein [2] | apparent KD of MS2 coat protein [3] | apparent KD of MS2 coat protein (input ligand: FMN 200 uM) | apparent KD of MS2 coat protein [4] | apparent KD of MS2 coat protein (input ligand: none)
17 | GUGGUGGGUUGAGGAUAUUGGUUGUCGUUGUCCCACAUGAGGAUCACCCAUGUGGGUUGUGGUUUUGAGAAGGUUGGUUGCUGG [salish99_SSNG2_r04_052] (Eterna round: R96, puzzle: Same State NG 2) |  |  |  |  | 12.9 nM | 
18 | GUGGUGUAGAUACAGGAUAUGUUGCUCGUAACAUGAGGAUCACCCAUGUAUAUAUGAGAUUAAAUGCAGAAGGGUGCACACCACG [Mat - Same State 2 - Mod of UCT - D76] (puzzle: Same State 2) | 18.9 nM | 24.6 nM | 13.3 nM |  |  | 
19 | GUGGUGUAGAUACAGGAUAUGUUGCUCGUAACAUGAGGAUCACCCAUGUAUCUAUGAGAUUAAAUGCAGAAGGGUGCACACCACA [Mat - Same State 2 - Mod of UCT - D72] (puzzle: Same State 2) | 460 nM | 24 nM | 297 nM |  |  | 
20 | GUUAAACAUGAGGAUCACCCAUGUAAUAAUAUGGGAGGAUAUCAGAAAUUAUGUAUUAAAUGAGAAGGCCUAAUUG [Mat - Same State 1 - Mod of Eli - D80] (puzzle: Same State 1) | 585 nM | 125 nM | 769 nM |  |  | 
21 | GUUAAACAUGAGGAUCACCCAUGUAAUAAUAUGGGAGGAUAUGCGAAAUUAAUUAAUUAAGCAGAAGGCCUAAUUG [Mat - Same State 1 - D98] (puzzle: Same State 1) | 148 nM | 38.3 nM | 217 nM |  |  | 
22 | GUUAAACAUGAGGAUCACCCAUGUCAAUGUAGUCGAGGAUAUGGGCAGCUAUGAGGCGUACUAGAAGGCGAAGAGG [Mat - Same State 1 - Mod of JL - D11] (puzzle: Same State 1) | 236 nM | 121 nM | 334 nM |  |  | 
23 | GUUAAACAUGAGGAUCACCCAUGUCAAUGUAGUCGAGGAUAUGGGCAGCUGUGAGGCGUACUAGAAGGCGAAAAGG [Mat - Same State 1 - Mod of JL - D10] (puzzle: Same State 1) | 266 nM |  |  |  |  | 
24 | GUUACAUGAGGAUCACCCAUGUAUGUGUGGGAGUAAGUGUCUUAGGAUAUCUAGUAAUUAAUUUAAGAGAAGGAAGAUUGUUGU [JMF's solution 54] (Eterna round: R96, puzzle: Same State NG 3) |  |  |  | 133 nM | 93.5 nM | 134 nM
25 | GUUACAUGAGGAUCACCCAUGUAUGUGUGGGAGUAAGUGUCUUAGGAUAUCUAUCAAUUAAUUUAAGAGAAGGAAGAUUGUUGU [JMF's solution 89] (Eterna round: R96, puzzle: Same State NG 3) |  |  |  | 116 nM | 94 nM | 110 nM
26 | GUUACAUGAGGAUCACCCAUGUAUGUGUGGGAGUAAGUGUCUUAGGAUAUCUAUCAUUUAAAUUAAGAGAAGGAAGAUUGUUGU [JMF's solution 12] (Eterna round: R96, puzzle: Same State NG 3) |  |  |  | 126 nM | 73.5 nM | 118 nM
27 | GUUACAUGAGGAUCACCCAUGUAUGUGUGGGAGUAAGUGUCUUAGGAUAUCUAUGAUUUAAUUCAAGAGAAGGAAGAUUGUUGU [JMF's solution 85] (Eterna round: R96, puzzle: Same State NG 3) |  |  |  | 115 nM | 70.7 nM | 79.5 nM
28 | GUUACAUGAGGAUCACCCAUGUAUGUGUGGGAGUAAGUGUCUUAGGAUAUCUGUUAUUGAAUUUAAGAGAAGGAAGAUUGUUGU [JMF's solution 37] (Eterna round: R96, puzzle: Same State NG 3) |  |  |  | 102 nM | 59.5 nM | 100 nM
29 | GUUAGGAAUCUAGCAAACAUGAGGAUCACCCAUGUUAGUGGGAAGGAUAUGGUACAGAAACUGUACCAGAAGGUCUUAUUGAUU [Omei SS(NG) 3 AV4] (Eterna round: R96, puzzle: Same State NG 3) |  |  |  | 40.2 nM | 33 nM | 59 nM
30 | GUUAGGAAUCUAGCAUACAUGAGGAUCACCCAUGUAAGUGGGAAGGAUAUGGUACAGAAACUGUACCAGAAGGUCUUAUUGAUU [Omei SS(NG) 3 AV6] (Eterna round: R96, puzzle: Same State NG 3) |  |  |  | 45.1 nM | 40.8 nM | 80.1 nM
31 | GUUAUACAUGAGGAUCACCCAUGUCAAUGUAGUCGAGGAUAUGGGUAGCCAUGAGGCGUACUAGAAGGCGAGGAGU [JL-ss1-3.19 ViennaUCT mod] (puzzle: Same State 1) | 68.8 nM | 130 nM | 81.5 nM |  |  | 
32 | GUUCGUUUGAUAGGAUAUCGCUAUACAUGAGGAUCACCCAUGUUUACCACGCUGGUUUUUCGUACCGAGAAGGAUUCUGAUGAU [JL JR sub007 mod 2] (Eterna round: R96, puzzle: Same State NG 2) |  |  |  |  | 30.5 nM | 
